The test system of one data set is DM1 cells. Put plainly: Cell proliferation assay (CellTiter 96 AQueous), cell growth inhibition after lipofection. The format is cell-based, human. As to the method: Cells seeded at 10^5 cells/mL in 96-well plates were transfected 24 h later with antimiRs as described previously.[20] After 96 h, cell proliferation was measured using the CellTiter 96 AQueous Non-Radioactive Cell Proliferation Assay (Promega, Madison, WI). Absorbance levels were determined using an Infinite M200 PRO plate reader (Tecan, Männedorf, Switzerland) and the TC50 was calculated using non-linear least-squares regression.

A further data set deals with Nfix exon 7. Put plainly: Alternative splicing of Nfix exon 7 in muscle by RT-PCR (PSI, splice recovery). The data set is classed as in vivo, mouse. Conditions: HSALR mice, individual mice; for Percentage spliced-in (PSI) Nfix Gast: 9.2 mg/kg (mean) i.v. x3, day 45, gastrocnemius; for Percentage spliced-in (PSI) Nfix Quads: 9.2 mg/kg (mean) i.v. x3, day 45, quadriceps. The protocol: (§1) Total RNA from murine gastrocnemius and quadriceps muscle was isolated using the miRNeasy Mini Kit (QIAGEN, Hilden, Germany) according to the manufacturer’s instructions. One microgram of RNA was digested with DNase I (Invitrogen, Carlsbad, CA) and reverse transcribed with SuperScript II (Invitrogen) using random hexanucleotides. For subsequent PCR reactions, 20 ng of cDNA was used with GoTaq polymerase (Promega). Specific primers were used to analyze the alternative splicing of Nfix, Atp2a1, and Clcn1 in mouse samples (both muscles). Gapdh levels established the endogenous reference levels using 0.2 ng of cDNA. PCR products were separated on a 2% agarose gel and quantified using ImageJ software (NIH, Bethesda, MD). PSR index was defined as value%SI minus X¯%DSI , divided by X¯%DSI minus X¯%HSI (SI, splicing inclusion of each sample; DSI, disease splicing inclusion; HSI, healthy splicing inclusion). Overall, PSR indicates the amount in both muscles analyzed. Primer sequences and exons analyzed are available in Cerro-Herreros et al.[20] In the case of off-targets, interleukins, and muscle regeneration marker Mstn-1, primers sequences are available in Table S5. We used 1 ng of mouse tissue cDNA as a template for multiplex qPCR using the QuantiFast Probe PCR Kit reagent. Commercial TaqMan probes (QIAGEN) were used for mouse (Mbnl1 and Mbnl2; FAM-labeled probes) and reference (GAPDH; MAX-labeled probe) genes. Results were normalized to Gapdh endogenous gene expression.
(§2) We used homozygous transgenic HSA^LR (line 20 b) mice,[90] which were kindly provided by Dr Thornton (Rochester, NY) and were housed and bred in our animal facility. Experimental groups were FVB as healthy control and HSA^LR treated with a scrambled ON (SC) and PBS as negative controls, and HSA^LR mice treated with all six experimental CPP-PMOs. The mice were randomly allocated to the different treatments as follows: in each cage, each mouse was ear-marked as it was taken out, and each mouse was then assigned to a different treatment. […] Mice were sacrificed 45 days after the first injection and the tissues of interest were frozen in liquid nitrogen for the molecular and histological assays. All the mice used in this study ranged from 5 to 5.5 months of age and all were males.

The nature of data set [1]: Bodyweight-normalized spleen weight and body weight. The data set is classed as in vivo, mouse. The source says: (§3) Mouse handling and experimental procedures followed the European law regarding laboratory animal care and experimentation (2003/65/C.E.) and were approved by Conselleria de Agricultura, […] (reference no. A1539961490857). We used homozygous transgenic HSA^LR (line 20 b) mice,[90] which were kindly provided by Dr Thornton (Rochester, NY) and were housed and bred in our animal facility. […] The mice were randomly allocated to the different treatments as follows: in each cage, each mouse was ear-marked as it was taken out, and each mouse was then assigned to a different treatment. Animals were injected biweekly intravenously with 150 μL of 1× PBS vehicle (controls; […] Mice were sacrificed 45 days after the first injection and the tissues of interest were frozen in liquid nitrogen for the molecular and histological assays. All the mice used in this study ranged from 5 to 5.5 months of age and all were males.

The next data set has as its system Atp2a1 exon 22. Put plainly: Alternative splicing of Atp2a1 exon 22 in muscle by RT-PCR (PSI, splice recovery). Conditions: HSALR mice, individual mice; for Percentage spliced-in (PSI) Atp2a1 Gast: 9.2 mg/kg (mean) i.v. x3, day 45, gastrocnemius; for Percentage spliced-in (PSI) Atp2a1 Quads: 9.2 mg/kg (mean) i.v. x3, day 45, quadriceps. The format is in vivo, mouse. As to the method: as §1, §2

The test system of another data set is HSALR mice. In words: White blood cell differential count. The data set is classed as in vivo, mouse.
From the text: as §3, with “males. At 45 days post treatment, animals were sacrificed, and blood was collected by cardiac puncture exsanguination with K3-EDTA (Sarstedt, Nümbrecht, Germany). The samples were analyzed by Laboratorios Montoro Botella (Valencia, Spain).” for “males.”

Another data set deals with Clcn1 exon 7a. Put plainly: Alternative splicing of Clcn1 exon 7a in muscle by RT-PCR (PSI, splice recovery). Conditions: HSALR mice, individual mice; for Percentage spliced-in (PSI) Clcn1 Gast: 9.2 mg/kg (mean) i.v. x3, day 45, gastrocnemius; for Percentage spliced-in (PSI) Clcn1 Quads: 9.2 mg/kg (mean) i.v. x3, day 45, quadriceps. The format is in vivo, mouse. As to the method:
as §1, §2

[2] abbreviates: HSALR mice, 9.2 mg/kg (mean) i.v. x3, day 45, blood, differential count, mean ± sd.

Several values for one entry are separate records, joined by “and”; a condition that tells them apart may be missing. Identical values can stand only once. Like-named read-outs stand apart in the source and are kept apart here.

As to “9b2KC-218 (antisense ACAUGGUUAGAUCAAGCACAA; all phosphorodiamidate morpholino (PMO), T or U not given here; Pip9b2KC peptide conjugated)”, the “TC50” value in the data set with DM1 cells was determined as 88.26 nM. In addition, in the data set on Nfix exon 7, the “Percentage spliced-in (PSI) Nfix Gast” value is 66.68% and 66.91% and 60.18% and 67.84% and 62.07%; the “Percentage spliced-in (PSI) Nfix Quads” value was 48.85% and 67.46% and 51.19% and 51.94% and 21.60%. Further, the Weight in data set [1] (mouse, in vivo, iv, 9.2 mg/kg) was 31,28 ± 4,11 g. In addition, in the data set on Atp2a1 exon 22, the “Percentage spliced-in (PSI) Atp2a1 Gast” value was 12.53% and 17.65% and 19.44% and 12.90% and 35.28%; the “Percentage spliced-in (PSI) Atp2a1 Quads” value was 99.70% and 25.98% and 29.31% and 30.83% and 25.20%. Besides, in the data set with HSALR mice (mouse, in vivo, iv, 9.2 mg/kg), the Basophils was found to be 0 ± 0%, the Eosinophils is 7,20 ± 2,28%, the Lymphocytes is reported as 59,60 ± 3,130% and the Monocytes is 6,40 ± 2,074%. Further, the Seg cells with HSALR mice (mouse, in vivo, iv, 9.2 mg/kg) is 25,8 ± 4,324%. In addition, in the data set with Clcn1 exon 7a, the “Percentage spliced-in (PSI) Clcn1 Gast” value was 32.73% and 22.25% and 31.59% and 22.57% and 29.41%; the “Percentage spliced-in (PSI) Clcn1 Quads” value is 2.19% and 27.06% and 25.84% and 30.53% and 22.73%.
Consider “TCTTACCTCAGTTACAATTTA-Pip9b2 [Scramble, reference compound]”, for which, in the data set with DM1 cells (toxic concentration 50, DM1 cells transfected 24 h after seeding, read after 96 h, absorbance, non-linear least-squares regression), the “TC50” value came to 217.00 nM. In the data set on Nfix exon 7, the “Percentage spliced-in (PSI) Nfix Gast” value was 62.98% and 52.74% and 55.70% and 81.00% and 76.46%; the “Percentage spliced-in (PSI) Nfix Quads” value is 60.30% and 80.52% and 66.59% and 72.38% and 72.49%. Also, the Spleen weight ratio in data set [1] (HSALR mice, 9.2 mg/kg (mean) i.v. x3, day 45, bodyweight-normalized, mean ± sd, n = 5) is 0,0029 ± 0,0005. In addition, the Weight in data set [1] (HSALR mice, 9.2 mg/kg (mean) i.v. x3, body weight, mean ± sd, n = 5) is on record as 37,36 ± 2,928 g. In addition, in the data set with Atp2a1 exon 22, the “Percentage spliced-in (PSI) Atp2a1 Gast” value is 6.44% and 27.49% and 24.15% and 5.60% and 15.65%; the “Percentage spliced-in (PSI) Atp2a1 Quads” value is 18.65% and 34.43% and 18.71% and 17.01% and 7.50%. Further, in the data set with HSALR mice (setting [2]), the Basophils was found to be 0 ± 0%, the Eosinophils was 2 ± 0,707%, the Lymphocytes is on record as 60 ± 14,543% and the Monocytes is on record as 11,60 ± 7,829%. In the data set on HSALR mice (setting [2]), the Seg cells is listed as 25,8 ± 8,349% and the Stab cells is 0,60 ± 0,548%. Also, in the data set on Clcn1 exon 7a, the “Percentage spliced-in (PSI) Clcn1 Gast” value is 12.37% and 14.67% and 42.81% and 26.86% and 36.37%; the “Percentage spliced-in (PSI) Clcn1 Quads” value was 28.91% and 16.71% and 28.33% and 34.05% and 38.65%.

Values taken from article PMC10514136, “Peptide-conjugated antimiRs improve myotonic dystrophy type 1 phenotypes by promoting endogenous MBNL1 expression” (Molecular Therapy. Nucleic Acids, 2023).
